From patent US9803013B2, “Biological materials and uses thereof” (BioInvent International AB, priority 2005, dated 2017)

Experiments:
MM cells = experiment: FACS analysis of BI-505 epitope expression on patients' plasma cells; format: binding, human; set-up: key to BI-505 epitope expression Intensity: BI-505 negative cells (−) are B-cells from patient number 8; (+), (++) and (+++) corresponding to patient number 8, 7 and 10; (+), (++) and (+++) corresponding to patient number 8, 7 and 10; (+), (++) and (+++) corresponding to patient number 8, 7 and 10; details: for BI-505 epitope expression Intensity: FACS on MM cells
Description: (FIG. 16A) Analysis of myeloma cells in bone marrow from multiple myeloma patients by flow cytometry. Myeloma cells were gated based on expression of CD138, CD38, CD56 and CD45 according to international guidelines (Rawstron et al., 2008). Furthermore, intracellular staining was used to confirm monoclonal expression by K and A staining. B1-505 epitope expression was categorized as shown in the histogram (right position) with (+), (++) and (+++) corresponding to patient number 8, 7 and 10. BI-505 negative cells (−) are B-cells from patient number 8.
It was next evaluated the expression of the BI-505 epitope on bone marrow cells in patients with MM and related diseases (plasmacytoma, plasma cell leukemia, and light chain amyloidosis) by flow cytometry (FIG. 15 and Table 4). Myeloma cells were identified using fluorescent antibodies against surface antigens CD38, CD138, CD45 and CD56 (FIG. 16A) according to European Myeloma Network guidelines on multiparametric flow cytometry in MM (Rawstron et al., 2008) and confirming monoclonal MM cells with intracellular staining of λ and κ light chains. All MM patients expressed the BI-505 epitope on most (97±4%, mean±SD, patient n=22) myeloma cells (FIG. 15 and Table 4). The BI-505 epitope was generally very highly expressed on these cells, with median expression level 10 times higher than on normal B cells from the same patients. Similar results were obtained with a commercially available anti-ICAM-1 antibody (data not shown). Furthermore, the BI-505 epitope was highly expressed on myeloma cells in a patient in relapse who had received several different lines of therapy (FIG. 16B). Thus, ICAM-1 and the BI-505 epitope are strongly expressed on the surface of MM plasma cells.
Plasma cell surface expression of ICAM-1 and the BI-505 epitope was analyzed by FACS. Bone marrow aspirates were obtained from 29 patients diagnosed with MM or related diseases at the Department of Hematology, Skånes University Hospital, Lund. All human samples were collected using protocols approved by the Ethics Committee of Skåne University Hospital, and informed consent was obtained from all patients.
Bone marrow aspirates from 29 patients diagnosed with MM or related diseases (plasmocytoma, plasma cell leukemia, or amyloid light chain amyloidosis) at the Department of Hematology, Skånes University Hospital, Lund were analyzed by flow cytometry using 4 cocktails of antibodies, each suitable for recognizing plasma cells (Figure S3) after informed consent and with the approval of the local ethical committee. Clinical data were obtained from patients' charts.

T cells = experiment: T cell proliferation (CFSE); format: cell-based, human; details: immobilized (air-dried or wet coated) or in solution
Protocol: (FIG. 23F) Antibody induced T-cell proliferation. CFSE-labeled T-cells were incubated with BI-505, isotype control IgG or anti-CD3 (okt-3) IgG hyperimmobilised to cell culture plates by air-drying “A” or wet-coating “W”. Cells were cultured for 6 days, and T cell proliferation was monitored by flow-cytometry as decreased CFSE signals.
Cytokine release and T cell proliferation are thought to be common causes of mild and severe adverse reactions to antibody therapy. In order to further investigate any undesirable effects of BI-505 on ICAM-1 expressing immune cells, we therefore assessed putative effects of BI-505 on peripheral blood mononuclear cell (PBMC) cytokine release and T cell proliferation. In order to maximize the chances of identifying any PBMC-agonistic properties of BI-505, we used two different antibody-coating protocols in which the antibody was hyper-cross-linked as previously described (Stebbings et al., 2007).
T cells used in the proliferation assay were stained with CFSE (carboxyfluorescein diacetate, succinimidyl ester; Invitrogen). The CFSE-labeled cells were seeded at a density of 150,000 cells/well in wet and air-dried antibody-coated plates. The cells were cultured for 6 days with one renewal of medium after 3 days. AccuCheck Count Beads (Invitrogen) were used to ensure accurate quantification of cell proliferation in the flow cytometry. […]

B1: B11: fully human IgG1 antibody specific for ICAM-1; VH and VL sequences of FIG. 10 (SEQ ID NOs. 6 and 8) (antibody, listed as Homo sapiens, V domains shown)
VH: EVQLLESGGGLVQPGGSLRLSCAASGFTFSNAWMSWVRQAPGKGLEWVAFIWYDGSNKYYADSVKGRFTISRDNSKNTLYLQMNSLRAEDTAVYYCARYSGWYFDYWGQGTLVTVSS
VL: QSVLTQPPSASGTPGQRVTISCTGSSSNIGAGYDVHWYQQLPGTAPKLLIYDNNNRPSGVPDRFSGSKSGTSASLAISGLRSEDEADYYCQSYDSSLSAWLFGGGTKLTVLG
myeloma cells expressing the BI-505 epitope (MM cells; all MM patients, mean±SD, patient n=22): 97±4% | BI-505 epitope expression Positive cells (%) (MM cells; patient 1, MM): 98% | BI-505 epitope expression Intensity (MM cells; patient 1, MM): +++ | BI-505 epitope expression Positive cells (%) (MM cells; patient 2, MM): 97% | BI-505 epitope expression Intensity (MM cells; patient 2, MM): +++ | BI-505 epitope expression Positive cells (%) (MM cells; patient 3, MM): 100% | BI-505 epitope expression Positive cells (%) (MM cells; patient 4, nsMM): 100% | BI-505 epitope expression Intensity (MM cells; patient 4, nsMM): +++ | BI-505 epitope expression Positive cells (%) (MM cells; patient 5, MM): 100% | BI-505 epitope expression Intensity (MM cells; patient 5, MM): ++ | BI-505 epitope expression Positive cells (%) (MM cells; patient 6, MM): 98% | BI-505 epitope expression Intensity (MM cells; patient 6, MM): +++ | BI-505 epitope expression Positive cells (%) (MM cells; patient 7, MM): 98% | BI-505 epitope expression Intensity (MM cells; patient 7, MM): +++ | BI-505 epitope expression Positive cells (%) (MM cells; patient 8, MM): 100% | BI-505 epitope expression Intensity (MM cells; patient 8, MM): +++ | BI-505 epitope expression Positive cells (%) (MM cells; patient 9, MM): 100% | BI-505 epitope expression Intensity (MM cells; patient 9, MM): ++ | BI-505 epitope expression Positive cells (%) (MM cells; patient 10, MM): 95% | BI-505 epitope expression Intensity (MM cells; patient 10, MM): + | BI-505 epitope expression Positive cells (%) (MM cells; patient 11, MM): 100% | BI-505 epitope expression Intensity (MM cells; patient 11, MM): +++ | BI-505 epitope expression Positive cells (%) (MM cells; patient 12, nsMM): 95% | BI-505 epitope expression Positive cells (%) (MM cells; patient 13, MM): 100% | BI-505 epitope expression Intensity (MM cells; patient 13, MM): +++ | BI-505 epitope expression Positive cells (%) (MM cells; patient 14, MM): 100% | BI-505 epitope expression Intensity (MM cells; patient 14, MM): +++ | BI-505 epitope expression Positive cells (%) (MM cells; patient 15, MM): 100% | BI-505 epitope expression Intensity (MM cells; patient 15, MM): +++ | BI-505 epitope expression Positive cells (%) (MM cells; patient 16, MM): 88% | BI-505 epitope expression Intensity (MM cells; patient 16, MM): ++ | BI-505 epitope expression Positive cells (%) (MM cells; patient 17, MM): 100% | BI-505 epitope expression Intensity (MM cells; patient 17, MM): +++ | BI-505 epitope expression Positive cells (%) (MM cells; patient 18, MM): 100% | BI-505 epitope expression Intensity (MM cells; patient 18, MM): +++ | BI-505 epitope expression Positive cells (%) (MM cells; patient 19:1, MM): 93% | BI-505 epitope expression Intensity (MM cells; patient 19:1, MM): +++ | BI-505 epitope expression Positive cells (%) (MM cells; patient 19:2, MM): 95% | BI-505 epitope expression Intensity (MM cells; patient 19:2, MM): +++ | BI-505 epitope expression Positive cells (%) (MM cells; patient 19:3, MM): 91% | BI-505 epitope expression Intensity (MM cells; patient 19:3, MM): +++ | BI-505 epitope expression Positive cells (%) (MM cells; patient 20, MM): 100% | BI-505 epitope expression Intensity (MM cells; patient 20, MM): +++ | BI-505 epitope expression Positive cells (%) (MM cells; patient 21, MM): 93% | BI-505 epitope expression Intensity (MM cells; patient 21, MM): +++ | BI-505 epitope expression Positive cells (%) (MM cells; patient 22, MM): 86% | BI-505 epitope expression Intensity (MM cells; patient 22, MM): +++ | BI-505 epitope expression Positive cells (%) (MM cells; patient 23, AL): 97% | BI-505 epitope expression Intensity (MM cells; patient 23, AL): ++ | BI-505 epitope expression Positive cells (%) (MM cells; patient 24, AL): 100% | BI-505 epitope expression Intensity (MM cells; patient 24, AL): +++ | BI-505 epitope expression Positive cells (%) (MM cells; patient 25, LCDD/MM): 98% | BI-505 epitope expression Intensity (MM cells; patient 25, LCDD/MM): +++ | BI-505 epitope expression Positive cells (%) (MM cells; patient 26, PCL): 76% | BI-505 epitope expression Intensity (MM cells; patient 26, PCL): +++ | BI-505 epitope expression Positive cells (%) (MM cells; patient 27, PCL): 77% | BI-505 epitope expression Intensity (MM cells; patient 27, PCL): + | BI-505 epitope expression Positive cells (%) (MM cells; patient 28, PC): 93% | BI-505 epitope expression Intensity (MM cells; patient 28, PC): +++ | BI-505 epitope expression Positive cells (%) (MM cells; patient 29, PC): 100% | BI-505 epitope expression Intensity (MM cells; patient 29, PC): +++ | increase of mean BI-505 expression in myeloma cells after first relapse (MM cells; patient, bone marrow number 2 versus diagnosis): two-fold | T cell proliferation (T cells): did not induce T cell proliferation
